Reference: article PMC10786891, “Massively parallel profiling of RNA-targeting CRISPR-Cas13d”

T1: EsCas13d, nuclease-dead (Eubacterium siraeum, UniProt B0MS50, R295A;H300A;R849A;H854A)
T1 sequence: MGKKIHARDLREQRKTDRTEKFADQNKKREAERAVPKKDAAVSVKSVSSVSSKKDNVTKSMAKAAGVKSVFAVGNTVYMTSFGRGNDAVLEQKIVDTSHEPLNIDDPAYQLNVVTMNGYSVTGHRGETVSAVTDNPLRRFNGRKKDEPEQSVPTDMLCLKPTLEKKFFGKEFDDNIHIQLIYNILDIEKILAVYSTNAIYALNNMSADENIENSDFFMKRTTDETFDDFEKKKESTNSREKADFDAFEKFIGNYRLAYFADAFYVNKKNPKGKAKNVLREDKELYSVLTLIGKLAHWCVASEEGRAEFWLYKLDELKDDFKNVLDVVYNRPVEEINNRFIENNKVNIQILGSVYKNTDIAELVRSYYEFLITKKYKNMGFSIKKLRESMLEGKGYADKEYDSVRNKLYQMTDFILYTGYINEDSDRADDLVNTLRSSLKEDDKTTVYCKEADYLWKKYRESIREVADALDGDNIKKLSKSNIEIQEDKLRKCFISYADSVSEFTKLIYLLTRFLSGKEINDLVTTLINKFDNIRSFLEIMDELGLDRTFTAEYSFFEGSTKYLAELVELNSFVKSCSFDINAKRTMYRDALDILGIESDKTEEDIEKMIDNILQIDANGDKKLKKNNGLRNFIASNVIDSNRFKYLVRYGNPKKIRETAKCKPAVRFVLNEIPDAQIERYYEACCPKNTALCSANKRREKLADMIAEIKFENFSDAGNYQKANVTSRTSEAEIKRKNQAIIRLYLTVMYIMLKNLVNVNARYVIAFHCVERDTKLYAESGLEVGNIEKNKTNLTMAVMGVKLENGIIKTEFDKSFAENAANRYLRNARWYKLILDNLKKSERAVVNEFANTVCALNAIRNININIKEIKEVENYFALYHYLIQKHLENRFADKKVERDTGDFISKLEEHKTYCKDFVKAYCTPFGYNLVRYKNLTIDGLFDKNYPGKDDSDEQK

T2: RfxCas13d (CasRx), nuclease-dead (Ruminococcus flavefaciens, R239A;H244A;R858A;H863A)
T2 chain: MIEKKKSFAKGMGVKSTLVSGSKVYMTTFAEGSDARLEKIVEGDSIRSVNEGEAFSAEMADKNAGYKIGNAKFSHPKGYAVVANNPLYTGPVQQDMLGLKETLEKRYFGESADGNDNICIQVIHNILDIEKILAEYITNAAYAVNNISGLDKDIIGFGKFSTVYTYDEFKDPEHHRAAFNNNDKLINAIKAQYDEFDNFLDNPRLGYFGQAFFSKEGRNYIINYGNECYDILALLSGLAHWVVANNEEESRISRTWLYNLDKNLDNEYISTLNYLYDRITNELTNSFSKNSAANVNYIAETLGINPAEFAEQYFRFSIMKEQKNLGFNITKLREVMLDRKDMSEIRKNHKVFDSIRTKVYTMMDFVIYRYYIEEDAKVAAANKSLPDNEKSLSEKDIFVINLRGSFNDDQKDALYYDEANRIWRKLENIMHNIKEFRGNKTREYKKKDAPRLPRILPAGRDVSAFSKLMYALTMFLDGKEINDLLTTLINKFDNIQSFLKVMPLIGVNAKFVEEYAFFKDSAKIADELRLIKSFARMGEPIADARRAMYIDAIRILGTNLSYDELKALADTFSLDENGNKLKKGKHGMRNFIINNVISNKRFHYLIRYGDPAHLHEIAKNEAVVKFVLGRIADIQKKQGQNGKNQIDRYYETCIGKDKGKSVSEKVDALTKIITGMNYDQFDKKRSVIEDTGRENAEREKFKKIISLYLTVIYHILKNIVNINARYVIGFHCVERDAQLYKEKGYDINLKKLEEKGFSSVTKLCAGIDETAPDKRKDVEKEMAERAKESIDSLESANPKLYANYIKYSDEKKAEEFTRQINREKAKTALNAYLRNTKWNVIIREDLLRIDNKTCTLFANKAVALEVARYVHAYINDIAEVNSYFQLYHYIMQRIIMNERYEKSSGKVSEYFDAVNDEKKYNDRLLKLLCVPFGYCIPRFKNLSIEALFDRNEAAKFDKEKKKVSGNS


Legend:
Test in all cases: BLI; crRNA (strand 1, pre-loaded); Mg2+; 40 mM Tris-HCl pH 7.5, 150 mM NaCl, 6 mM MgCl2, 1 mM DTT, 0.1% Tween-20, 0.2 mg/ml BSA; temperature not stated
Conditions in all cases: tags: His6-TwinStrep-SUMO cleaved; label: 3' biotin on strand 2
EsCas13d, nuclease-dead [1] = target: T1, EsCas13d, nuclease-dead
EsCas13d, nuclease-dead [2] = target: T1, EsCas13d, nuclease-dead; remark: listed apart in the source
[3] = target: T2, RfxCas13d (CasRx), nuclease-dead

| Binder | Kd (EsCas13d, nuclease-dead [1]) | koff (EsCas13d, nuclease-dead [2]) | kon (EsCas13d, nuclease-dead [2]) | Kd [3] |
| --- | --- | --- | --- | --- |
| target 1 G5U (60-mer) (mixed) RNA 1: CACCCGUGCAAAAAUGCAGGGGUCUAAAACUGAGCGGAUAACCUCUCUAUGG RNA 2: CCACAUCUACGAAUUCGUACCAUAGAGAGGUUAUCCUCUCACCGAGAUCGGAAGAGCACA | 9.3 nM | 0.00042 s⁻¹ | 45000 M⁻¹ s⁻¹ |  |
| target 1 C7A (60-mer) (mixed) RNA 1: CACCCGUGCAAAAAUGCAGGGGUCUAAAACUGAGCGGAUAACCUCUCUAUGG RNA 2: CCACAUCUACGAAUUCGUACCAUAGAGAGGUUAUACGCUCACCGAGAUCGGAAGAGCACA | 2.1 nM | 0.00045 s⁻¹ | 220000 M⁻¹ s⁻¹ |  |
| target 1 3'-GUU (60-mer) (mixed) RNA 1: CACCCGUGCAAAAAUGCAGGGGUCUAAAACUGAGCGGAUAACCUCUCUAUGG RNA 2: CCACAUCUACGAAUUCGUACCAUAGAGAGGUUAUCCGCUCAGUUAGAUCGGAAGAGCACA | 4.4 nM | 0.0011 s⁻¹ | 250000 M⁻¹ s⁻¹ |  |
| target 1 3'-GGU (60-mer) (mixed) RNA 1: CACCCGUGCAAAAAUGCAGGGGUCUAAAACUGAGCGGAUAACCUCUCUAUGG RNA 2: CCACAUCUACGAAUUCGUACCAUAGAGAGGUUAUCCGCUCAGGUAGAUCGGAAGAGCACA | 7.1 nM | 0.00084 s⁻¹ | 120000 M⁻¹ s⁻¹ |  |
| target 1 U10G (60-mer) (mixed) RNA 1: AACCCCUACCAACUGGUCGGGGUUUGAAACUGAGCGGAUAACCUCUCUAUGG RNA 2: CCACAUCUACGAAUUCGUACCAUAGAGAGGUGAUCCGCUCACCGAGAUCGGAAGAGCACA |  |  |  | ~0.271 nM |
| target 1 C2G (60-mer) (mixed) RNA 1: AACCCCUACCAACUGGUCGGGGUUUGAAACUGAGCGGAUAACCUCUCUAUGG RNA 2: CCACAUCUACGAAUUCGUACCAUAGAGAGGUUAUCCGCUGACCGAGAUCGGAAGAGCACA |  |  |  | ~0.109 nM |
| target 1 A18G (60-mer) (mixed) RNA 1: CACCCGUGCAAAAAUGCAGGGGUCUAAAACUGAGCGGAUAACCUCUCUAUGG RNA 2: CCACAUCUACGAAUUCGUACCAUGGAGAGGUUAUCCGCUCACCGAGAUCGGAAGAGCACA | 8.7 nM | 0.00063 s⁻¹ | 73000 M⁻¹ s⁻¹ |  |
| target 1 5'-UAA (60-mer) (mixed) RNA 1: CACCCGUGCAAAAAUGCAGGGGUCUAAAACUGAGCGGAUAACCUCUCUAUGG RNA 2: CCACAUCUACGAAUUCUAACCAUAGAGAGGUUAUCCGCUCACCGAGAUCGGAAGAGCACA | 6 nM | 0.00061 s⁻¹ | 100000 M⁻¹ s⁻¹ |  |
| target 1 A20C (60-mer) (mixed) RNA 1: CACCCGUGCAAAAAUGCAGGGGUCUAAAACUGAGCGGAUAACCUCUCUAUGG RNA 2: CCACAUCUACGAAUUCGUACCCUAGAGAGGUUAUCCGCUCACCGAGAUCGGAAGAGCACA | 6.3 nM | 0.00063 s⁻¹ | 100000 M⁻¹ s⁻¹ |  |
| target 1 C7A (60-mer) (mixed) RNA 1: AACCCCUACCAACUGGUCGGGGUUUGAAACUGAGCGGAUAACCUCUCUAUGG RNA 2: CCACAUCUACGAAUUCGUACCAUAGAGAGGUUAUACGCUCACCGAGAUCGGAAGAGCACA |  |  |  | ~0.175 nM |
| target 1 G15A (60-mer) (mixed) RNA 1: CACCCGUGCAAAAAUGCAGGGGUCUAAAACUGAGCGGAUAACCUCUCUAUGG RNA 2: CCACAUCUACGAAUUCGUACCAUAGAAAGGUUAUCCGCUCACCGAGAUCGGAAGAGCACA | 3.4 nM | 0.0006 s⁻¹ | 180000 M⁻¹ s⁻¹ |  |
| target 1 C4A (60-mer) (mixed) RNA 1: AACCCCUACCAACUGGUCGGGGUUUGAAACUGAGCGGAUAACCUCUCUAUGG RNA 2: CCACAUCUACGAAUUCGUACCAUAGAGAGGUUAUCCGAUCACCGAGAUCGGAAGAGCACA |  |  |  | ~0.132 nM |
| target 1 A18G (60-mer) (mixed) RNA 1: AACCCCUACCAACUGGUCGGGGUUUGAAACUGAGCGGAUAACCUCUCUAUGG RNA 2: CCACAUCUACGAAUUCGUACCAUGGAGAGGUUAUCCGCUCACCGAGAUCGGAAGAGCACA |  |  |  | ~0.886 nM |
| target 1 U10G (60-mer) (mixed) RNA 1: CACCCGUGCAAAAAUGCAGGGGUCUAAAACUGAGCGGAUAACCUCUCUAUGG RNA 2: CCACAUCUACGAAUUCGUACCAUAGAGAGGUGAUCCGCUCACCGAGAUCGGAAGAGCACA | 3.8 nM | 0.00051 s⁻¹ | 130000 M⁻¹ s⁻¹ |  |
| target 1 MT (60-mer) (mixed) RNA 1: AACCCCUACCAACUGGUCGGGGUUUGAAACUGAGCGGAUAACCUCUCUAUGG RNA 2: CCACAUCUACGAAUUCGUACCAUAGAGAGGUUAUCCGCUCACCGAGAUCGGAAGAGCACA |  |  |  | ~0.104 nM |
| target 1 C22A (60-mer) (mixed) RNA 1: CACCCGUGCAAAAAUGCAGGGGUCUAAAACUGAGCGGAUAACCUCUCUAUGG RNA 2: CCACAUCUACGAAUUCGUAACAUAGAGAGGUUAUCCGCUCACCGAGAUCGGAAGAGCACA | 3.6 nM | 0.00066 s⁻¹ | 190000 M⁻¹ s⁻¹ |  |
| target 1 G5U (60-mer) (mixed) RNA 1: AACCCCUACCAACUGGUCGGGGUUUGAAACUGAGCGGAUAACCUCUCUAUGG RNA 2: CCACAUCUACGAAUUCGUACCAUAGAGAGGUUAUCCUCUCACCGAGAUCGGAAGAGCACA |  |  |  | ~1.12 nM |
| target 1 3'-UAA (60-mer) (mixed) RNA 1: CACCCGUGCAAAAAUGCAGGGGUCUAAAACUGAGCGGAUAACCUCUCUAUGG RNA 2: CCACAUCUACGAAUUCGUACCAUAGAGAGGUUAUCCGCUCAUAAAGAUCGGAAGAGCACA | 6 nM | 0.00061 s⁻¹ | 100000 M⁻¹ s⁻¹ |  |
| target 1 C22A (60-mer) (mixed) RNA 1: AACCCCUACCAACUGGUCGGGGUUUGAAACUGAGCGGAUAACCUCUCUAUGG RNA 2: CCACAUCUACGAAUUCGUAACAUAGAGAGGUUAUCCGCUCACCGAGAUCGGAAGAGCACA |  |  |  | ~0.291 nM |
| target 1 3'-UGG (60-mer) (mixed) RNA 1: CACCCGUGCAAAAAUGCAGGGGUCUAAAACUGAGCGGAUAACCUCUCUAUGG RNA 2: CCACAUCUACGAAUUCGUACCAUAGAGAGGUUAUCCGCUCAUGGAGAUCGGAAGAGCACA | 8.6 nM | 0.0006 s⁻¹ | 70000 M⁻¹ s⁻¹ |  |
| crRNA-1 (MT) target (mixed) RNA 1: CACCCGUGCAAAAUUGCAGGGGUCUAAAACUUUUGGUUGACCACAUCUUGAA RNA 2: UUGGAAAACUUCAAGAUGUGGUCAACCAAAAUGCACAAGC | 4 nM | 0.00038 s⁻¹ | 96000 M⁻¹ s⁻¹ |  |
